This note sets out measurements from patent US6632625 (MERCK, dated 2003).

This assay addresses T1, recombinant human leptin (human, UniProt P41159 22-167, 125I label on the tracer form (125I-leptin, NEN); position not stated).
T1 construct: also called recombinant leptin; 125I-leptin
Briefly: 125I-leptin binding on transfected COS cells.

T1 sequence (P41159 22-167 limits assumed): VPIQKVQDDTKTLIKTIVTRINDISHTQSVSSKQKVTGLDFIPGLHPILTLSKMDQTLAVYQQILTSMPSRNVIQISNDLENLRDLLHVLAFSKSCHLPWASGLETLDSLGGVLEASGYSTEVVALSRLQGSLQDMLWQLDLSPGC

B1: substitution mutant (420-496)TO(500-632) of the human OB-R (receptor)
chain: FNLSYPITPWRFKLSCMPPNSTYDYFLLPAGLSKNTSNSNGHYETAVEPKFNSSGTHFSNLSKTTFHCCFRSEQDRNCSLCADNIEGKTFVSTVNSLVFQQIDANWNIQCWLKGDLKLFICYVESLFKNLFRNYNYKVHLLYVLPEVLEDSPLVPQKGSFQMVHCNCSVHECCECLVPVPTAKLNDTLLMCLKITSGGVIFQSPLMSVQPINMVKPDPPLGLHMEITDDGNLKISWSSPPLVPFPLQYQVKYSENSTTVIREADKIVSATSLLVDSILPGSSYEVQVRGKRLDGPGIWSDWSTPRVFTTQDVIYFPPKILTSVGSNVSFHCIYKKENKIVPSKEIVWWMNLAEKIPQSQYDVVSDHVSKVTFFNLNETKPRGKFTYDAVYCCNEHECHFQPIFLLSGYTMWIRINHSLGSLDSPPTCVLPDSVVKPLPPSSVKAEITINIGLLKISWEKPVFPENNLQFQIRYGLSGKEVQWKMYEVYDAKSKSVSLPVPDLCAVYAVQVRCKRLDGLGYWSNWSNPAYTVECIFQPIFLLSGYTMWIRINHSLGSLDSPPTCVLPDSVVKPLPPSSVKAEITINIGLLKISWEKPVFPENNLQFQIRYGLSGKEVQWKMYEVYDAKSKSVSLPVPDLCAVYAVQVRCKRLDGLGYWSNWSNPAYTVVMDIKVPMRGPEFWRIINGDTMKKEKNVTLLWKPLMKNDSLCSVQRYVINHHTSCNGTWSEDVGNHTKFTFLWTEQAHTVTVLAINSIGASVANFNLTFSWPMSKVNIVQSLSAYPLNSSCVIVSWILSPSDYKLMYFIIEWKNLNEDGEIKWLRISSSVKKYYIHDHFIPIEKYQFSLYPIFMEGVGKPKIINSFTQDDIEKHQSDAGLYVIVPVIISSSILLLGTLLISHQRMKKLFWEDVPNPKNCSWAQGLNFQKPETFEHLFIKHTASVTCGPLLLEPETISEDISVDTSWKNKDEMMPTTVVSLLSTTDLEKGSVCISDQFNSVNFSEAEGTEVTYEAESQRQPFVKYATLISNSKPSETGEEQGLINSSVTKCFSSKNSPLKDSFSNSSWEIEAQAFFILSDQHPNIISPHLTFSEGLDELLKLEGNFPEENNDKKSIYYLGVTSIKKRESGVLLTDKSRVSCPFPAPCLFTDIRVLQDSCSHFVENNINLGTSSKKTFASYMPQFQTCSTQTHKIMENKMCDLTV
Consider B1, for which the binding result is reported as “no binding (tested: 0.2 nM)”.
